In article PMC11358308, “Structure-based humanization of a therapeutic antibody for multiple myeloma” (Journal of Molecular Medicine (Berlin, Germany), 2024):

Key:
Conditions in all cases: both partners purified
[1] = target: T1, cynomolgus BCMA (Macaca fascicularis, UniProt A0A2K5UD97); experiment: SPR; ProteOn XPR36; whole IgG (15 µg/ml) immobilised on GLH chip by amine chemistry; BCMA as mobile phase in PBS with 0.005% Tween-20 (0.4-90 nM hBCMA, 2.7 nM-1 µM cBCMA); Kd from kon and koff, single-site model
T1 construct: B-cell maturation antigen (BCMA), cynomolgus monkey (macaque); differs from human BCMA at three positions: alanine 20 is aspartic acid, isoleucine 22 is lysine, asparagine 31 of hBCMA is deleted; also called cynoBCMA; cBCMA

[2] = target: T2, human B-cell maturation antigen (BCMA), extracellular domain (Homo sapiens (Human)., UniProt Q02223); experiment: as above
T2 construct: B-cell maturation antigen (BCMA), human; soluble form used as mobile phase in SPR and in the Fab:BCMA crystals; holds the DxL loop (L17) and H19; also called hBCMA; human BCMA

[3] = target: T2, human B-cell maturation antigen (BCMA), …; experiment: crystal structure; Fab:BCMA complexes; 21% PEG 3350, 0.1 M BisTris pH 6.5, 5 mM CuCl2, 20 °C; molecular replacement

T2 sequence (Q02223 1-54): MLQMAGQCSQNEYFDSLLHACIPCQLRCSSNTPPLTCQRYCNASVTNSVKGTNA

| binding result [1] | Kd [2] | binding result [3] | binding result [2] | Binder |
| --- | --- | --- | --- | --- |
| binds |  |  | binds | J22.9-FSY, humanized and CDR-optimized IgG (antibody, V domains shown, as the VH of m5 (J22.9-H); human IgG1 heavy chain constant region, as told for J22.9-xi; as the light chain of m5 (J22.9-H; no structure of this variant; source: expressed, purified)) VH: EVQLVESGGGLVQPGGSLRLSCAASGFTFSRYWFSWVRQAPGKGLVWVGEINPSSSTINYAPSLKDKFTISRDNAKNTLYLQMNSLRAEDTAVYYCASLYYDYGDAYDYWGQGTLVTVSS VL: EIVMTQSPATLSVSPGERATLSCKASQSVESNVAWYQQKPGQAPRALIYSASLRFSGIPARFSGSGSGTEFTLTISSLQSEDFAVYYCQQYNNYPLTFGAGTKLELK |
| binds |  |  | binds | J22.9-ISY, humanized and CDR-optimized IgG (antibody, V domains shown, as the VH of m5 (J22.9-H; human IgG1 heavy chain constant region, as told for J22.9-xi; source: expressed, purified)) VH: EVQLVESGGGLVQPGGSLRLSCAASGFTFSRYWISWVRQAPGKGLVWVGEINPSSSTINYAPSLKDKFTISRDNAKNTLYLQMNSLRAEDTAVYYCASLYYDYGDAYDYWGQGTLVTVSS VL: EIVMTQSPATLSVSPGERATLSCKASQSVESNVAWYQQKPGQAPRALIYSASLRFSGIPARFSGSGSGTEFTLTISSLQSEDFAVYYCQQYNNYPLTFGAGTKLELK |

The next lines start with the binder.

| Binder | binding result [1] | Kd [2] | binding result [3] | binding result [2] |
| --- | --- | --- | --- | --- |
| J22.9-H, humanized IgG (all humanizing substitutions in VH and VL except A46L in VL) (antibody, V domains shown, humanized VH (hVH, 16 changes against the mouse VH); human IgG1 heavy chain constant region, as told for J22.9-xi; Fab light chain in PDB 8QY9; whole IgG in SPR and FACS; source: expressed, purified) VH: EVQLVESGGGLVQPGGSLRLSCAASGFTFSRYWMSWVRQAPGKGLVWVGEINPDSSTINYAPSLKDKFTISRDNAKNTLYLQMNSLRAEDTAVYYCASLYYDYGDAMDYWGQGTLVTVSS VL: EIVMTQSPATLSVSPGERATLSCKASQSVDSNVAWYQQKPGQAPRALIYSASLRFSGIPARFSGSGSGTEFTLTISSLQSEDFAVYYCQQYNNYPLTFGAGTKLELK | binds | 15 nM |  |  |
| J22.9-ISY Fab fragment (Fab, V domains shown, Fab heavy chain; as the light chain of m7 (light chain of J22.9-H with D30E); Crystallised in complex with BCMA) VH: EVQLVESGGGLVQPGGSLRLSCAASGFTFSRYWISWVRQAPGKGLVWVGEINPSSSTINYAPSLKDKFTISRDNAKNTLYLQMNSLRAEDTAVYYCASLYYDYGDAYDYWGQGTLVTVSS VL: EIVMTQSPATLSVSPGERATLSCKASQSVESNVAWYQQKPGQAPRALIYSASLRFSGIPARFSGSGSGTEFTLTISSLQSEDFAVYYCQQYNNYPLTFGAGTKLELK |  |  | binds |  |
| J22.9-xi, chimaeric mouse/human IgG (antibody, V domains shown, mouse VH of J22.9 (mVH); mouse VL of J22.9 (mVL); Fab light chain in PDB 4ZFO; IgG1; whole IgG immobilised in SPR) VH: QVQLQQSGGGLVQPGGSLKLSCAASGIDFSRYWMSWVRRAPGKGLEWIGEINPDSSTINYAPSLKDKFIISRDNAKNTLYLQMSKVRSEDTALYYCASLYYDYGDAMDYWGQGTSVTVSS VL: DIVMTQSQRFMTTSVGDRVSVTCKASQSVDSNVAWYQQKPRQSPKALIFSASLRFSGVPARFTGSGSGTDFTLTISNLQSEDLAEYFCQQYNNYPLTFGAGTKLELK | binds | 0.28 nM |  |  |
